Data published in patent publication US20200199244A1 (published 2020).
Where “and” joins values, the source holds several entries; their conditions need not be identical. Equal values may be shown once.

T1: human CD40 (H76R, W109L, L121P) Fc fusion (human)
T1 construct: As m1 with H76R, W109L and L121P; also called hCD40-M5; not shown: human IgG1 Fc
T1 chain: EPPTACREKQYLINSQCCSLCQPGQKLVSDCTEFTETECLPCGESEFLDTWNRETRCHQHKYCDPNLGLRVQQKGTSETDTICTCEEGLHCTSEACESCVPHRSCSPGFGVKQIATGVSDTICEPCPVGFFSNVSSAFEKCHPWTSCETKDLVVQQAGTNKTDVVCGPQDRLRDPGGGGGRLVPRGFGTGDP

T2: wild type cynomolgus monkey CD40 Fc fusion (cynomolgus monkey; human)
T2 construct: also called wt-cyno-CD40; wt-cCD40; not shown: human IgG1 Fc
T2 chain: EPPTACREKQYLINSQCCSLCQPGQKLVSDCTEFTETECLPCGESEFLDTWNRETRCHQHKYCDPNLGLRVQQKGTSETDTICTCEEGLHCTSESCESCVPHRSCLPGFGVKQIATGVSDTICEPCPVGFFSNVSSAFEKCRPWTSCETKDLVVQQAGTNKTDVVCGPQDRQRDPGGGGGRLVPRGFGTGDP

T3: human CD40 (H76R, W109L, L121P) Fc fusion (human)
T3 construct: Same construct as wt-hCD40 with H76R, W109L and L121P; also called hCD40-M5; hCD40-M5 (H76R, W109L, L121P); not shown: human IgG1 Fc
T3 chain: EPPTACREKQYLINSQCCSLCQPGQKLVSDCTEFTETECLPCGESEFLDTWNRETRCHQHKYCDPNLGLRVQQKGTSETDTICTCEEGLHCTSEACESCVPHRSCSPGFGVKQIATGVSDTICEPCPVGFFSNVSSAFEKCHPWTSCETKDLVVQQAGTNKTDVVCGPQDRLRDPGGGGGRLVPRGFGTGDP

T4: wild type cynomolgus monkey CD40 Fc fusion (cynomolgus monkey (Macaca …))
T4 construct: also called wt-cCD40; wt-cyno-CD40; not shown: human IgG1 Fc
T4 chain: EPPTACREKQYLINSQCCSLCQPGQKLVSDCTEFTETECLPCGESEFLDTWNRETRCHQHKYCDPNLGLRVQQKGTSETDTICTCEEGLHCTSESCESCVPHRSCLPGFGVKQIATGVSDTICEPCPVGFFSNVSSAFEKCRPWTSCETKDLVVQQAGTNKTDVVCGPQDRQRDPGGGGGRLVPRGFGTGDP


Assays:
[1] = target: T5, human CD40 (H76R) Fc fusion (human, UniProt P25942 21-193); assay: SPR (ProteOn XPR36), dAb over CD40-Fc captured by anti-human IgG(Fc)
T5 construct: Built as wt-hCD40 with the printed substitution; also called hCD40-M1; hCD40 M1 (H76R)
Procedure: (§1) Assays were performed on a BioRad ProteOn XPR36 SPR instrument. The SPR surfaces were prepared by immobilizing 8 μg/ml anti-human IgG(Fc) antibody (Biacore/GE Healthcare) in 10 mM sodium acetate pH 4.5 on a BioRad GLC sensor chip using standard ethyl(dimethylaminopropyl) carbodiimide (EDC)/N-hydroxysuccinimide (NHS) chemistry, with ethanolamine blocking. The running buffer for immobilization and kinetic binding analysis was 10 mM sodium phosphate, 130 mM sodium chloride, 0.05% tween 20, pH 7.1. CD40-Fc fusion proteins at concentrations of 20 μg/ml were captured in the vertical orientation on these surfaces via the Fc tail, and reference surfaces lacking CD40-Fc proteins were used for reference subtraction. […] The surfaces were regenerated in both horizontal and vertical orientations with 30 s pulses of 3 M MgCl₂ followed by running buffer at 60 μl/min. Sensogram data was double-referenced and then fitted to a 1:1 Langmuir model using BioRad ProteOn Manager V.2.1.0.38 software, to determine the association rate constant (ka), the dissociation rate constant (kd), and the equilibrium dissociation constant (KD).

[2] = target: T6, wild type human CD40 Fc fusion (human, UniProt P25942 21-193); assay: as above
T6 construct: also called wt-hCD40
Procedure: as §1

[3] = target: T1, human CD40 (H76R, W109L, L121P) Fc …; assay: SPR ProteOn XPR36;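 also: surface plasmon resonance with CD40-Fc fusions captured through their Fc on an anti-human IgG chip, sensorgrams reference-subtracted against surfaces lacking CD40-Fc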
Procedure: as §1

[4] = target: T7, human CD40 (W109R) Fc fusion (Chimpanzee CD40) (human, UniProt P25942 21-193); assay: SPR ProteOn XPR36;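 also: surface plasmon resonance with CD40-Fc fusions captured through their Fc on an anti-human IgG chip, sensorgrams reference-subtracted against surfaces lacking CD40-Fc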
T7 construct: As m1 with W109R (residue of chimpanzee CD40); also called hCD40-M3; not shown: human IgG1 Fc

[5] = target: T8, human CD40 (W109L, L121P) Fc fusion (human, UniProt P25942 21-193); assay: SPR ProteOn XPR36;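 also: surface plasmon resonance with CD40-Fc fusions captured through their Fc on an anti-human IgG chip, sensorgrams reference-subtracted against surfaces lacking CD40-Fc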
T8 construct: As m1 with W109L and L121P; also called hCD40-M4; not shown: human IgG1 Fc

[6] = target: T2, wild type cynomolgus monkey CD40 Fc …; assay: SPR ProteOn XPR36;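 also: surface plasmon resonance with CD40-Fc fusions captured through their Fc on an anti-human IgG chip, sensorgrams reference-subtracted against surfaces lacking CD40-Fc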
Procedure: as §1

[7] = target: T9, human CD40 (H76R) Fc fusion (human, UniProt P25942 21-193); assay: SPR ProteOn XPR36, CD40-Fc captured, dAb analyte
T9 construct: As m1 with H76R; also called hCD40-M1; not shown: human IgG1 Fc

[8] = target: T10, wild type human CD40 Fc fusion (human, UniProt P25942 21-193); assay: SPR ProteOn XPR36, CD40-Fc captured, dAb analyte
T10 construct: also called wt-hCD40; not shown: human IgG1 Fc

[9] = target: T11, human CD40 (H76R) Fc fusion (human, UniProt P25942 21-193); assay: SPR, ProteOn XPR36; CD40-Fc captured, dAb analyte; 1:1 fit;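 as to Kd: CD40-Fc captured on anti-human IgG(Fc) surface of a GLC chip, buffer pH 7.1, sensorgrams double-referenced against surfaces without CD40-Fc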;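 as to koff: CD40-Fc captured on anti-human IgG(Fc) surface of a GLC chip, buffer pH 7.1, sensorgrams double-referenced against surfaces without CD40-Fc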;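 as to kon: CD40-Fc captured on anti-human IgG(Fc) surface of a GLC chip, buffer pH 7.1, sensorgrams double-referenced against surfaces without CD40-Fc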
T11 construct: also called hCD40-M1; hCD40 M1 (H76R); not shown: human IgG1 Fc

[10] = target: T12, wild type human CD40 Fc fusion (human, UniProt P25942 21-193); assay: as above
T12 construct: also called wt-hCD40; not shown: human IgG1 Fc

[11] = target: T3, human CD40 (H76R, W109L, L121P) Fc …; assay: SPR, ProteOn XPR36; CD40-Fc captured, dAb analyte
[12] = target: T13, human CD40 (W109R) Fc fusion (Chimpanzee CD40) (human, UniProt P25942 21-193); assay: SPR, ProteOn XPR36; CD40-Fc captured, dAb analyte
T13 construct: Same construct as wt-hCD40 with W109R (the residue of chimpanzee CD40); also called hCD40-M3; hCD40 M3 (W109R); not shown: human IgG1 Fc

[13] = target: T4, wild type cynomolgus monkey CD40 Fc …; assay: SPR, ProteOn XPR36; CD40-Fc captured, dAb analyte
[14] = target: T14, human CD40 (W109L, L121P) Fc fusion (human, UniProt P25942 21-193); assay: SPR, ProteOn XPR36; CD40-Fc captured, dAb analyte
T14 construct: Same construct as wt-hCD40 with W109L and L121P; also called hCD40-M4; hCD40 M4 (W109L, L121P); not shown: human IgG1 Fc

[15] = target: T12, wild type human CD40 Fc fusion; assay: SPR, ProteOn XPR36; CD40-Fc captured, dAb analyte; 1:1 fit; repeat

| Binder | Kd [1] | Kd [2] | binding result [3] | binding result [4] | binding result [5] | binding result [6] | Kd [7] | Kd [8] | further results |
| --- | --- | --- | --- | --- | --- | --- | --- | --- | --- |
| BMS3h-38-2 (other, Human domain antibody (dAb), single VH domain) VH: EVQLLASGGGLVQPGGSLRLSCAASGFTFEEEEMIWVRQAPGKGLEWVSAISGSGGSTYYADSVKGRFTISRDNSKNTLYLQMNSLRAEDTAVYYCGKEPFRYDYWGQGTLVTVSS | < 10 nM | < 10 nM | – | – | – | – | – | – | – |
| BMS3h-38-217 (other, domain antibody (dAb), single VH domain) VH: EVQLLASGGGLVQPGGSLRLSCAASGFTFEEEEMIWVRQAPGKGLEWVSAISRRGYSTYYADSVKGRFTISRDNSKNTLYLQMNSLRAEDTAVYYCGKEPFRYDYWGQGTLVTVSS | – | – | no binding (tested: 405 nM) | no binding (tested: 405 nM) | no binding (tested: 405 nM) | no binding (tested: 405 nM) | 3.4 nM | 2.3 nM and 2.4 nM | – |
| BMS3h-38-211 (other, domain antibody (dAb), single VH domain) VH: EVQLLASGGGLVQPGGSLRLSCAASGFTFEEEEMIWVRQAPGKGLEWVSAISRQGGSTYYADSVKGRFTISRDNSKNTLYLQMNSLRAEDTAVYYCGKEPFRYDYWGQGTLVTVSS | – | – | no binding (tested: 405 nM) | no binding (tested: 405 nM) | no binding (tested: 405 nM) | no binding (tested: 405 nM) | 4 nM | 3.3 nM and 6.1 nM | – |
| BMS3h-38-215 (other, domain antibody (dAb), single VH domain) VH: EVQLLASGGGLVQPGGSLRLSCAASGFTFEEEEMIWVRQAPGKGLEWVSAISGLGWSTYYADSVKGRFTISRDNSKNTLYLQMNSLRAEDTAVYYCGKEPFRYDYWGQGTLVTVSS | – | – | no binding (tested: 405 nM) | no binding (tested: 405 nM) | no binding (tested: 405 nM) | no binding (tested: 405 nM) | 3 nM | 2.1 nM and 6 nM | – |
| BMS3h-38-211 (other, Anti-human CD40 domain antibody (dAb), single VH domain) VH: EVQLLASGGGLVQPGGSLRLSCAASGFTFEEEEMIWVRQAPGKGLEWVSAISRQGGSTYYADSVKGRFTISRDNSKNTLYLQMNSLRAEDTAVYYCGKEPFRYDYWGQGTLVTVSS | – | – | – | – | – | – | – | – | Kd [9]: 3.98 nM; koff [9]: 0.00051 s⁻¹; kon [9]: 128000 M⁻¹ s⁻¹; Kd [10]: 3.26 nM; koff [10]: 0.000362 s⁻¹; kon [10]: 111000 M⁻¹ s⁻¹; binding result [11]: no binding (tested: dAb tested up to 405 nM); binding result [12]: no binding (tested: dAb tested up to 405 nM); binding result [13]: no binding (tested: dAb tested up to 405 nM); binding result [14]: no binding (tested: dAb tested up to 405 nM); Kd [15]: 6.08 nM; koff [15]: 0.000728 s⁻¹; kon [15]: 120000 M⁻¹ s⁻¹ |
| BMS3h-38-217 (other, Human domain antibody (dAb), single VH domain) VH: EVQLLASGGGLVQPGGSLRLSCAASGFTFEEEEMIWVRQAPGKGLEWVSAISRRGYSTYYADSVKGRFTISRDNSKNTLYLQMNSLRAEDTAVYYCGKEPFRYDYWGQGTLVTVSS | < 10 nM | < 10 nM | – | – | – | – | – | – | – |
| BMS3h-38-215 (other, Human domain antibody (dAb), single VH domain) VH: EVQLLASGGGLVQPGGSLRLSCAASGFTFEEEEMIWVRQAPGKGLEWVSAISGLGWSTYYADSVKGRFTISRDNSKNTLYLQMNSLRAEDTAVYYCGKEPFRYDYWGQGTLVTVSS | < 10 nM | < 10 nM | – | – | – | – | – | – | – |
